Target: human IL-3 expressed by E. coli (Peprotech), non-glycosylated (human) (UniProt P08700)
Test: cell-based or functional assay

Sequence of UniProt P08700 (P08700 28-152, tags or fused parts left off): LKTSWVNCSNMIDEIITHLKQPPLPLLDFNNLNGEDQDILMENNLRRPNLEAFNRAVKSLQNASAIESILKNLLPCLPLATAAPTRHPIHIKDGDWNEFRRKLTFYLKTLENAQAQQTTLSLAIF

R&D monoclonal anti-IL-3 antibody clone 4806 (R&D Systems, Inc., catalogue No. MAB203)
IC50, IL-3 dependent growth of TF1 cells: 0.033 µg/mL
